Target: β:C12A yeast αβ-tubulin (yeast) (UniProt P09733)
Assay: microtubule elongation rates by time-lapse DIC microscopy

affinity of the interactions that drive elongation (extrapolation to the x-axis): 42 nM
kon: 1.22e+07 M⁻¹ s⁻¹
Substance: β:C12A yeast αβ-tubulin (from UniProt P09733 1-447; P02557 1-457) (complex)

Reference: article PMC5221584
